Measured values as given in article PMC4945389.

Experiments:
[1] = surface biotinylation, HEK293; details: glycan changed form; control: UT-A3 alone
[2] = cycloheximide chase 12 h, Western blot, HEK293; details: glycan changed form; control: UT-A3 alone
[3] = surface biotinylation, Xenopus oocytes
[4] = FSK-stimulated surface biotinylation, HEK293; details: glycan lost; control: wild type
[5] = FSK-stimulated total UT-A3, Western blot, HEK293; details: glycan lost; control: wild type
[6] = glycan lost, control: wild type UT-A3, untreated

Protein | localisation_or_trafficking [1] | localisation_or_trafficking [3, 6] | also measured
UT-A3: ST6GalI co-transfection (protein) parent chain: MSDHPLKEMSDNNRSPPLPEPLSSRYKLYESELSSPTWPSSSQDTHPALPLLEMPEEKDLRSSDEDSHIVKIEKPNERSKRRESELPRRASAGRGAFSLFQAVSYLTGDMKECKNWLKDKPLVLQFLDWVLRGAAQVMFVNNPLSGLIIFIGLLIQNPWWTIAGALGTVVSTLAALALSQDRSAIASGLHGYNGMLVGLLVAVFSEKLDYYWWLLFPVTFASMACPVISSALSTVFAKWDLPVFTLPFNIALTLYLAATGHYNLFFPTTLVKPASSAPNITWSEIEMPLLLQTIPVGVGQVYGCDNPWTGGVILVALFISSPLICLHAAIGSIVGLLAALTVATPFETIYTGLWSYNCVLSCVAIGGMFYVLTWQTHLLALVCALFCAYTGAALSNMMAVVGVPPGTWAFCLSTLTFLLLTSNNPGIHKLPLSKVTYPEANRIYFLTAKRSDEQKPPNGG | increases | – | degradation_or_half_life [2]: increases
UT-A3: tunicamycin (protein) parent chain: MSDHPLKEMSDNNRSPPLPEPLSSRYKLYESELSSPTWPSSSQDTHPALPLLEMPEEKDLRSSDEDSHIVKIEKPNERSKRRESELPRRASAGRGAFSLFQAVSYLTGDMKECKNWLKDKPLVLQFLDWVLRGAAQVMFVNNPLSGLIIFIGLLIQNPWWTIAGALGTVVSTLAALALSQDRSAIASGLHGYNGMLVGLLVAVFSEKLDYYWWLLFPVTFASMACPVISSALSTVFAKWDLPVFTLPFNIALTLYLAATGHYNLFFPTTLVKPASSAPNITWSEIEMPLLLQTIPVGVGQVYGCDNPWTGGVILVALFISSPLICLHAAIGSIVGLLAALTVATPFETIYTGLWSYNCVLSCVAIGGMFYVLTWQTHLLALVCALFCAYTGAALSNMMAVVGVPPGTWAFCLSTLTFLLLTSNNPGIHKLPLSKVTYPEANRIYFLTAKRSDEQKPPNGG | – | decreases | –
UT-A3: ST6GalI cRNA co-injection (protein) parent chain: MSDHPLKEMSDNNRSPPLPEPLSSRYKLYESELSSPTWPSSSQDTHPALPLLEMPEEKDLRSSDEDSHIVKIEKPNERSKRRESELPRRASAGRGAFSLFQAVSYLTGDMKECKNWLKDKPLVLQFLDWVLRGAAQVMFVNNPLSGLIIFIGLLIQNPWWTIAGALGTVVSTLAALALSQDRSAIASGLHGYNGMLVGLLVAVFSEKLDYYWWLLFPVTFASMACPVISSALSTVFAKWDLPVFTLPFNIALTLYLAATGHYNLFFPTTLVKPASSAPNITWSEIEMPLLLQTIPVGVGQVYGCDNPWTGGVILVALFISSPLICLHAAIGSIVGLLAALTVATPFETIYTGLWSYNCVLSCVAIGGMFYVLTWQTHLLALVCALFCAYTGAALSNMMAVVGVPPGTWAFCLSTLTFLLLTSNNPGIHKLPLSKVTYPEANRIYFLTAKRSDEQKPPNGG | – | – | localisation_or_trafficking ([3]; glycan changed form, control: UT-A3 cRNA alone): increases
UT-A3: N279Q (protein) parent chain: MSDHPLKEMSDNNRSPPLPEPLSSRYKLYESELSSPTWPSSSQDTHPALPLLEMPEEKDLRSSDEDSHIVKIEKPNERSKRRESELPRRASAGRGAFSLFQAVSYLTGDMKECKNWLKDKPLVLQFLDWVLRGAAQVMFVNNPLSGLIIFIGLLIQNPWWTIAGALGTVVSTLAALALSQDRSAIASGLHGYNGMLVGLLVAVFSEKLDYYWWLLFPVTFASMACPVISSALSTVFAKWDLPVFTLPFNIALTLYLAATGHYNLFFPTTLVKPASSAPNITWSEIEMPLLLQTIPVGVGQVYGCDNPWTGGVILVALFISSPLICLHAAIGSIVGLLAALTVATPFETIYTGLWSYNCVLSCVAIGGMFYVLTWQTHLLALVCALFCAYTGAALSNMMAVVGVPPGTWAFCLSTLTFLLLTSNNPGIHKLPLSKVTYPEANRIYFLTAKRSDEQKPPNGG | – | decreases | localisation_or_trafficking, other: % increase by FSK [4]: decreases; expression_or_secretion, other: % increase by FSK [5]: decreases
UT-A3: ST3GalIV co-transfection (protein) parent chain: MSDHPLKEMSDNNRSPPLPEPLSSRYKLYESELSSPTWPSSSQDTHPALPLLEMPEEKDLRSSDEDSHIVKIEKPNERSKRRESELPRRASAGRGAFSLFQAVSYLTGDMKECKNWLKDKPLVLQFLDWVLRGAAQVMFVNNPLSGLIIFIGLLIQNPWWTIAGALGTVVSTLAALALSQDRSAIASGLHGYNGMLVGLLVAVFSEKLDYYWWLLFPVTFASMACPVISSALSTVFAKWDLPVFTLPFNIALTLYLAATGHYNLFFPTTLVKPASSAPNITWSEIEMPLLLQTIPVGVGQVYGCDNPWTGGVILVALFISSPLICLHAAIGSIVGLLAALTVATPFETIYTGLWSYNCVLSCVAIGGMFYVLTWQTHLLALVCALFCAYTGAALSNMMAVVGVPPGTWAFCLSTLTFLLLTSNNPGIHKLPLSKVTYPEANRIYFLTAKRSDEQKPPNGG | no change | – | –
